Experimental data published in patent publication US20150218277A1 (REGENTS OF THE UNIVERSITY OF MICHIGAN, published 2015).
Ends that are not written are not given here.

Molecular target: Heat Shock Protein 90 (HSP90), endogenous, in human cell lines (human, UniProt P07900 2-732)
Assay: cell-based or functional assay

| Binder | clonogenic survival of UMSCC1 cells (Survival Fraction), peptide delivered with Chariot [survival fraction] |
| --- | --- |
| NHVPSDVC (not fully specified) [Peptide 8 NHVPSDVC (scrambled peptide)] | 1 |
| DEAYVMA [Peptide 1 DEAYVMA] | 0.93 |
| SVDNPHVC (not fully specified) [Peptide 2 SVDNPHVC (Disruptin)] | 0.77 |
| RLLGIC [Peptide 3 RLLGIC] | 0.85 |
| DEAYVMAGVGSPYVSRLLGIC [Peptide 6 DEAYVMAGVGSPYVSRLLGIC] | 1 |
| GVGSPYVS [Peptide 4 GVGSPYVS] | 1 |
| SVGNPHVC [Peptide 7 SVGNPHVC] | 0.97 |
